Test results as given in US20100055117A1 (published 2010).

Key:
[1] = target: T1, FRL (murine FMNL1 homologue) peptide on HLA-A*02:01 (human); experiment: killing
T1 peptide: RLPERMNTL

[2] = target: T2, FMNL1/KW13 peptide on HLA-A*02:01 (human); experiment: multimer staining
T2 peptide: RLPERMTTL

- binding result [2]: recognises
B1: TCR of T cell clone SC22 (Vα14J41; Vβ14J2.5) (TCR)
alpha TRAV38-2/DV8*01; Vα14 TRAJ41*01; J41 CDR3: AYENSGYALNF
beta TRBV27*01; Vβ14 TRBJ2-5*01; Jβ2.5 CDR3: ASSFLGETQYF
- binding result [1]: recognises
